Laboratory results: the supplement of paper PMC7877785
± gives the uncertainty stated by the source.

Assay: self-splicing fitness, log relative to wild type (ln ratio); higher = more splicing; Tetrahymena group I intron in knt gene, E. coli kanamycin selection, DiMSum; sequences stand for … in CUCUCU…GGAGGGAAAAGUUAUCAGGCAUGCACCUGGUAGCUAGUCUUUAAACCAAUAGAUUGCAUCGGUUUAAAAGGCAAGACCGUCAAAUUGCGGGAAAGGGGUCAACAGCCGUUCAGUACCAAGUCUCAGGGGAAACUUUGAGAUGGCCUUGCAAAGGGUAUGGUAAUAAGCUGACGGACAUGGUCCUAACCACGCAGCCAAGUCCUAAGUCAACAGAUCUUCUGUUGAUAUGGAUGCAGUUCACAGACUAAAUGUCGGUCGGGGAAGAUGUAUUCUUCUCAUAAGAUAUAGUCGGACCUCUCCUUAAUGGGAGCUAGCGGAUGAAGUGAUGCAACACUGGAGCCGCUGGGAACUAAUUUGUAUGCGAAAGUAUAUUGAUUAGUUUUGGAGUACUCGUGGUCG
How it was run: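 Colonies from six replicate transformations of E. coli BL21(DE3) were pooled and amplicon-sequenced on an Illumina HiSeq 2500. The library placed an intron with all eight P1ex-region nucleotides randomised inside the knt kanamycin-resistance gene on pET-22b(+), and cells grew overnight at 37°C or 30°C on LB agar with or without 25 μg/mL kanamycin (plus 100 μg/mL carbenicillin, 50 μM IPTG, 0.2% rhamnose). Fitness is the DiMSum error-weighted combination of wild-type-normalised replicate fold changes, kanamycin versus none.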

Row | Sequence | self-splicing fitness (ln) (30 °C) | self-splicing fitness (ln) (37 °C)
1 | AUCAAGCAAUAUUACGCACU | -0.00274 ± 0.081 | 0.0749 ± 0.097
2 | AUGCAGCAAUAUUACGAGGA | -3.57 ± 0.28 | -2.9 ± 0.21
3 | ACUUAGCAAUAUUACGAUCC | -1.9 ± 0.15 | -0.595 ± 0.2
4 | CACUAGCAAUAUUACGAAUU | -2.88 ± 0.19 | -2.77 ± 0.23
5 | GAAAAGCAAUAUUACGAGUA | -3.92 ± 0.42 | -2.44 ± 0.2
6 | CCAUAGCAAUAUUACGAAUG | -2.11 ± 0.08 | -1.15 ± 0.095
7 | GAAAAGCAAUAUUACGAUAA | -1.58 ± 0.081 | -0.197 ± 0.091
8 | GGACAGCAAUAUUACGCGGG | -2.52 ± 0.1 | -0.903 ± 0.091
9 | CGGCAGCAAUAUUACGACAG | 0.187 ± 0.11 | -1.27 ± 0.12
10 | CCCUAGCAAUAUUACGGUCG | -2.02 ± 0.068 | -0.697 ± 0.092
11 | CAGUAGCAAUAUUACGGGCC | -2.57 ± 0.31 | -2.19 ± 0.3
12 | ACUAAGCAAUAUUACGGCGU | -0.894 ± 0.078 | -0.0271 ± 0.1
13 | AGAGAGCAAUAUUACGGAGA |  | -2.11 ± 0.37
14 | GGAGAGCAAUAUUACGGCCU | -2.34 ± 0.29 | -1.19 ± 0.43
15 | GAAGAGCAAUAUUACGUUUU | -4.09 ± 0.23 | -2.38 ± 0.21
16 | UGGUAGCAAUAUUACGGUAG | -2.53 ± 0.2 | -0.912 ± 0.14
17 | CGUUAGCAAUAUUACGGCAA | -2.91 ± 0.2 | -1.1 ± 0.15
18 | CGUAAGCAAUAUUACGCUCG | -1.8 ± 0.17 | -0.572 ± 0.23
19 | AGGCAGCAAUAUUACGAGCC | -2 ± 0.14 | -1.4 ± 0.21
20 | AGAUAGCAAUAUUACGCGUC | -2.53 ± 0.2 | -0.587 ± 0.47
21 | GUCAAGCAAUAUUACGAAUC | -2.16 ± 0.11 | -0.596 ± 0.12
22 | GGUGAGCAAUAUUACGAUUA |  | -0.938 ± 0.45
23 | GGAUAGCAAUAUUACGAGUC | -2.17 ± 0.26 | -1.06 ± 0.22
24 | GUGGAGCAAUAUUACGGGAU | -4.12 ± 0.23 | -1.99 ± 0.24
25 | CAGAAGCAAUAUUACGUUCU | -2.75 ± 0.11 | -1.88 ± 0.1

Row | Sequence | self-splicing fitness (ln) (30 °C) | self-splicing fitness (ln) (37 °C)
26 | CCAAAGCAAUAUUACGUACA | -3.73 ± 0.23 | -3.32 ± 0.28
27 | UCAAAGCAAUAUUACGCAUU | -3.2 ± 0.4 | -3.34 ± 0.37
28 | AAAAAGCAAUAUUACGCCUU | -0.374 ± 0.071 | 0.151 ± 0.1
29 | ACCAAGCAAUAUUACGGCAA | -0.915 ± 0.08 | -0.348 ± 0.099
30 | CCCAAGCAAUAUUACGACCU | -3.38 ± 0.26 | -2.44 ± 0.25
31 | CUACAGCAAUAUUACGAGUA | -3.39 ± 0.18 | -1.71 ± 0.12
32 | CCGCAGCAAUAUUACGGCGG | -4.17 ± 0.22 | -3.33 ± 0.26
33 | AGCUAGCAAUAUUACGGUUA | -0.191 ± 0.067 | 0.383 ± 0.073
34 | UGUGAGCAAUAUUACGUCUC | -1.96 ± 0.25 | 
35 | GGACAGCAAUAUUACGAACA | -0.522 ± 0.18 | -0.703 ± 0.18
36 | GAUUAGCAAUAUUACGCGAA | -3.47 ± 0.29 | -1.44 ± 0.21
37 | UACCAGCAAUAUUACGCUCC | -1.12 ± 0.18 | -0.501 ± 0.2
38 | UUUCAGCAAUAUUACGCUAC | -2.95 ± 0.22 | -2.39 ± 0.34
39 | CUGCAGCAAUAUUACGAACU | -2.75 ± 0.3 | -2.34 ± 0.33
40 | UCAUAGCAAUAUUACGUGCC | -3.48 ± 0.41 | -1.34 ± 0.23
41 | CUGGAGCAAUAUUACGGGCG | -1.16 ± 0.12 | -0.434 ± 0.12
42 | GGGGAGCAAUAUUACGUGGC | -3.07 ± 0.48 | -1.12 ± 0.47
43 | ACUGAGCAAUAUUACGCCUC | -2.32 ± 0.31 | 
44 | UAUGAGCAAUAUUACGAGUA | -2.16 ± 0.19 | -0.862 ± 0.18
45 | CUAGAGCAAUAUUACGCGAG | -0.514 ± 0.11 | 0.0831 ± 0.13
46 | GGCGAGCAAUAUUACGGUAA | -2.66 ± 0.16 | -1.77 ± 0.2
47 | CUGUAGCAAUAUUACGUGCC | -3.49 ± 0.35 | -2.21 ± 0.24
48 | GAAGAGCAAUAUUACGAACG |  | -2.41 ± 0.33
49 | GUAGAGCAAUAUUACGUACA | -0.971 ± 0.11 | -1.12 ± 0.17
